# In PMC5743070 (The Journal of Biological Chemistry, 2017):
# Experiments:
# TTD–PHD (UHRF1_126–366) [1] = biological target: T1, TTD–PHD (UHRF1_126–366) (Homo sapiens, UniProt Q96T88); assay: ITC of H3 peptide binding to TTD–PHD
# T1 construct: His tag (TEV-cleavable) (N); made in house
# T1 sequence (Q96T88 126-366): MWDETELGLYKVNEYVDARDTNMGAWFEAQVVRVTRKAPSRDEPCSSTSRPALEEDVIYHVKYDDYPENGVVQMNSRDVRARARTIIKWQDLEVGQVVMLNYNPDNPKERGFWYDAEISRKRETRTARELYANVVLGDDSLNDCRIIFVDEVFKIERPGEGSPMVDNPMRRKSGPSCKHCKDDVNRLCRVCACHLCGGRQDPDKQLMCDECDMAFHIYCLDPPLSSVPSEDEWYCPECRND
# Experimental: A preliminary peptide injection of 0.06 μl was followed by subsequent 2-μl injections into the sample cell containing 167 μl of 50 μM TTD–PHD. Where indicated, 1.5 mM BPC or 1.5 mM PBR peptide was included in the injection syringe and sample cell. The reported KD and n values are based on the average from two measurements. For ITC measurements of TTD (UHRF1_121–286) interaction with BPC, the protein was buffered in 20 mM Tris (pH 7.4), 50 mM NaCl, and 5% DMSO. BPC was brought to a concentration of 2.5 mM and injected into the sample cell containing 40 μM protein. The data were acquired on a Nano ITC from TA Instruments at 25 °C and fitted with an independent-binding site model using NanoAnalyze software (v3.7.0).
# ITC curves showing TTD-PHD binding to methylated (red) and unmethylated (black) H3 peptide.
# (§1) (1 picture or pasted object on this page, not shown here)
# TTD–PHD (UHRF1_126–366) [2] = biological target: T1, TTD–PHD (UHRF1_126–366); assay: (1H-15N) TROSY NMR titration of TTD–PHD; assay type: binding
# Experimental: Exchange broadening is clearly observed for Arg^282, Gly^284, Asp^291, Asn^292, Met^294, and Ser^301 amide resonances at 1:3 protein/BPC ratios, with perturbations also seen with Gly^286 and Gly^299 (Fig. 4 and supplemental Fig. S6).
# (§2) NMR samples were buffered in 20 mM sodium phosphate (pH 7.5), 150 mM NaCl, 5 mM DTT, 5 mM β-mercaptoethanol, 2 mM TCEP, and 10 μM ZnSO4. The protein concentration was between 200 and 300 μM for all samples. The data were collected at 25 °C on Bruker spectrometers equipped with cryoprobes and operating at 500, 600, or 800 MHz. The assignment of backbone TTD–PHD resonances was accomplished using the ABACUS method ([29]) for which standard backbone and ^15N-edited NOESY spectra were collected using ^15N/^13C/^2H- or ^15N/^13C-labeled protein. All 3D experiments were acquired using non-uniform sampling and processed using the software MDDGUI ([30]) or qMDD ([31]). ^15N-Labeled TTD–PHD was used to acquire ^15N T1 and T2 relaxation and ^1H-^15N heteronuclear NOE measurements ([32]) collected using standard Bruker pulse schemes in an interleaved manner. For T1 measurements, the variable delay was set to 0.1, 0.4, 0.8, 1.5, 2.0, 2.5, 3.5, and 5 s. For T2 measurements, the variable delay was set to 16, 32, 48, 64, 80, 96, 128, and 144 ms. The D1 was 3 s for all experiments. Reported values were the average from two measurements. All spectra were processed using NMRPipe ([33]) and analyzed with SPARKY ([34]).
# TTD (UHRF1_121–286) [3] = biological target: T2, TTD (UHRF1_121–286) (Homo sapiens, UniProt Q96T88); assay: (1H-15N) HSQC NMR titration of TTD; assay type: binding; conditions: (1H-15N) HSQC spectra of TTD
# T2 construct: UHRF1_121–286 corresponding to the TTD; made in house
# T2 sequence (Q96T88 121-286): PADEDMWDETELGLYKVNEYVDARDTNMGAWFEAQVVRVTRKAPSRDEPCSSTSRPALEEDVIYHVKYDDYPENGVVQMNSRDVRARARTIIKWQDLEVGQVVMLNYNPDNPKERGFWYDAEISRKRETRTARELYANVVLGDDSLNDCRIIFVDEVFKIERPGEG
# Text: We designed a fragment library containing 2,040 compounds that was initially screened against isolated TTD (UHRF1_121–286) using a fluorescence polarization (FP) assay that tracked the displacement of a N-terminally tagged H3K9me3 peptide (H3K9me3(1–25)). From this screen, eight putative TTD-binding hits were identified. […] Because of limited commercial availability of the tricyclic amine, we focused only on BPC. The binding of this compound occurs close to (or within) the Arg^296-binding pocket; we observe significant perturbation of Trp^238 and Phe^278 resonances that form part of the pocket, and in Gly^236, which is directly adjacent to it (Fig. 4A and supplemental Fig. S5). We also see chemical shift changes in non-surface exposed residues that are close to or are in contact with the groove.
# as §2
# Figure S5 (related to Fig. 4)
# Binding of BPC in the groove of TTD. […]
# labeled (at the N-terminus) H3K9me3(1-25) peptide, (B) ITC, and (C) DSF. (D) KD estimates of BPC bind-ing based on I211 and Y239 amide peak movement (where Δ(ppm) = ((ΔδHN)2 + (ΔδN/6.5)2 )1⁄2) in (1H-15N) HSQC spectra when the TTD is titrated with BPC. […]
# as a function of TTD sequence resulting from BPC (blue) or PBR peptide (red) binding. (F) HSQC overlays […]
# ment:protein), and PBR peptide ratios (bottom spectrum - from 1:1 to 5:1 peptide:protein). The protein con-centration was ~250 µM for all NMR experiments, and the DMSO concentration was 5% for NMR titrations […]
# as §1
# TTD (UHRF1_121–286) [4] = biological target: T2, TTD (UHRF1_121–286); assay: HSQC competition of BPC and linker peptide on TTD; assay type: binding; conditions: BPC 2.4 mM, linker peptide 3.0 mM, 5% DMSO; I211, I212 and E281 resonances in HSQC
# Experimental: as §2, with “([34]). […]” for “([34]).”
# trated by the perturbation of I211, I212 and E281 resonances in HSQC spectra of the TTD in a competition assay. […]
"increase of KD for H3K9me3 (effect of added ligand) (TTD–PHD (UHRF1_126–366) [1]; 1.5 mM BPC or PBR peptide in syringe and cell, vs apo TTD–PHD) [fold]",effect on TTD–PHD conformation (TTD–PHD (UHRF1_126–366) [2]; Fig. 4),binding site on TTD by amide peak movement (TTD (UHRF1_121–286) [3]),competition for the TTD groove (TTD (UHRF1_121–286) [4]),Substance,"effect on TTD–PHD binding affinity for the histone peptide (TTD–PHD (UHRF1_126–366) [1]; 1.5 mM BPC (4% DMSO) or 1.5 mM PBR peptide, H3K9me3(1–15))","effect on linker resonances of TTD–PHD (TTD–PHD (UHRF1_126–366) [2]; (1H-15N) TROSY, ~250 μM protein/750 μM ligand)"
~5,promote open TTD–PHD conformations,binding in the groove,–,"PBR peptide: 15-residue peptide corresponding to the PBR (UHRF1_643–657) (GKGKWKRKSAGGGPS; UniProt Q96T88 643-657, looked up, fragment) [reference compound]",reduces the TTD–PHD binding affinity for the histone peptide,strikingly similar peak broadening/perturbation pattern
–,–,–,compete directly for the TTD groove,"linker peptide: linker peptide (corresponding to UHRF1286-300) (GSPMVDNPMRRKSGP; UniProt Q96T88 286-300, looked up, fragment) [reference compound]",–,–
